Values joined by “and” are separate entries in the source; they are usually repeats but may differ in a detail not shown here. Identical values can stand only once.
What was measured:
[1] = biological target: the molecule itself; test: small-angle neutron scattering (SANS); 5.3 mg/mL Cyt c′ in D2O, 20 mM phosphate buffer, pD 9.6; KWS-1 beam line; Rg and curve compared with those of the crystal dimer; MW ratio from I(0)/C against the pD 1.7 sample; dimer to monomers
[2] = biological target: the molecule itself; test: small-angle neutron scattering (SANS); 5.5 mg/mL Cyt c′ in D2O, 20 mM phosphate buffer, pD 6.4; KWS-1 beam line; Rg and curve compared with those of the crystal dimer; MW ratio from I(0)/C against the pD 1.7 sample; dimer to monomers

B1: Cytochrome c′ from Alcaligenes xylosoxidans NCIMB 11015 (natural protein, UniProt P00138 1-127, looked up)
chain: QFAKPEDAVKYRQSALTLMASHFGRMTPVVKGQAPYDAAQIKANVEVLKTLSALPWAAFGPGTEGGDARPEIWSDAASFKQKQQAFQDNIVKLSAAADAGDLDKLRAAFGDVGASCKACHDAYRKKK
modifications: heme prosthetic group embedded in the C-terminal region
notes: Cytochrome c′ (c-type cytochrome, four-α-helix bundle) of Alcaligenes xylosoxidans NCIMB 11015; helices A(Ala3-Lys31), B(Asp37-Phe59), C(Ala76-Asp98), D(Asp103-Arg124); His120 axial ligand; crystal structures PDB 4WGZ and 4WGY are of the same protein; also called Cyt c′; Cyt c'
[1]
  stoichiometry N: 1.9 and 1.8
[2]
  stoichiometry N: 2.1 and 2

Reference: article PMC8774185, “Open-Bundle Structure as the Unfolding Intermediate of Cytochrome c′ Revealed by Small Angle Neutron Scattering” (Biomolecules, 2022)
